# From patent US20240368668A1, “SUBSTRATES AND BIOMARKERS OF ADAMTS7” (The Broad Institute, Inc., priority 2021, published 2024)
# Square brackets hold non-standard residues; d marks the D form. Ends that are not written are not given here.
# Target: T1, mouse ADAMTS7 (Mus musculus, UniProt Q68SA9, E373Q)
# T1 construct: Full-length mouse Adamts7 1-1857 (Uniprot Q68SA9, WT or E373Q catalytic mutant); expressed in transfected cells; host or cells: Human Coronary Artery Smooth Muscle Cells (HCA-SMC, Lonza), adenovirus 50 MOI
# T1 sequence (Q68SA9 221-1657 E373Q): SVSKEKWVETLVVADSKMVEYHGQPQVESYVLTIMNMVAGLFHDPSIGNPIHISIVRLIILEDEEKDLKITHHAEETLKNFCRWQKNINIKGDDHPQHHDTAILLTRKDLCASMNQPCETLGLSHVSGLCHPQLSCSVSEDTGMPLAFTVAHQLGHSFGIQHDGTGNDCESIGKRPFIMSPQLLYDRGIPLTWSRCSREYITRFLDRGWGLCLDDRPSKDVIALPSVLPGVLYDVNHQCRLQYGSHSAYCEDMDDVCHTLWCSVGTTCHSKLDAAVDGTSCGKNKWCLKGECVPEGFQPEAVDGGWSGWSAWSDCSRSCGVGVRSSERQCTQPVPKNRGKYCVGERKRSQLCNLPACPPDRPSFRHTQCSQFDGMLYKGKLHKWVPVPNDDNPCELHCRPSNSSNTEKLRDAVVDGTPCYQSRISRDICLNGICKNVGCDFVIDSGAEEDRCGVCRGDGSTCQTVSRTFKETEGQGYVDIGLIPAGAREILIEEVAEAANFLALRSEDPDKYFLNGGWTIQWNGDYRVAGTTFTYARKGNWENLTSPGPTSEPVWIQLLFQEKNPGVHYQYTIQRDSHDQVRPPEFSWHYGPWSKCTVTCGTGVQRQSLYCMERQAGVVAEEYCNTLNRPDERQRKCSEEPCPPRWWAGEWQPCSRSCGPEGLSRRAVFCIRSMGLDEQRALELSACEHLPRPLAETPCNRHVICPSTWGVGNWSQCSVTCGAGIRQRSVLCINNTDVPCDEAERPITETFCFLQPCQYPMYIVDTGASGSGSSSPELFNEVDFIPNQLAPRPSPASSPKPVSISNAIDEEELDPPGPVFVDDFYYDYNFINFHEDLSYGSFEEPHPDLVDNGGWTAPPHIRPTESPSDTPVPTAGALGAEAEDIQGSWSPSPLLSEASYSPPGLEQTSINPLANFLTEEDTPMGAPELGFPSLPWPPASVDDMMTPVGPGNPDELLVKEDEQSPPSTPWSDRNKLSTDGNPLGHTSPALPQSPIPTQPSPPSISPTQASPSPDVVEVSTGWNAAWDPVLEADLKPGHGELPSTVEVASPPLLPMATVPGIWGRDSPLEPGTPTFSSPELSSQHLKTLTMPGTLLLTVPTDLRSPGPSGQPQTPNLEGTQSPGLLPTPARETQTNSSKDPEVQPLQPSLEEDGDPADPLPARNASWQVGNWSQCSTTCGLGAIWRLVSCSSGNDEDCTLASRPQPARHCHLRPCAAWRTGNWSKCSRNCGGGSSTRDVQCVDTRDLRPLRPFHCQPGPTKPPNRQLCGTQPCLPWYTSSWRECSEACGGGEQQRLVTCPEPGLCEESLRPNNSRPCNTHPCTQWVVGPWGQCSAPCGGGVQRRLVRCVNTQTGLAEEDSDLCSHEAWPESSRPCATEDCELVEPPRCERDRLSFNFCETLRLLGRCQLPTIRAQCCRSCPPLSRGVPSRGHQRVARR
# Assay: TMT10 TAILS N-terminomics, SMC2 experiment (process replicates, trypsin/AspN digest)
# Type: cell-based
# Details: SMC2_TAILS HC
# Procedure, shortened: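 Full-length mouse ADAMTS7 (WT or E373Q mutant, C-terminal 3xFLAG) or luciferase was transduced via adenovirus, 50 MOI, into HCA-SMC (SMC1, SMC2) or HUVEC. SMC1: pooled media, technical triplicates 400 ug; SMC2: process triplicates 300 ug; HUVEC: process triplicates 200 ug, bFGF2 10 ng/ml.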
# [1] = log fold change of N-terminal peptide, Ad-mADAMTS7 EQ over Luc
"logFC.mEQ.over.Luc (log fold change, mEQ over Luc)",logFC.mEQ.over.Luc [1],Substance
−0.51,,IGFBP3_32 (AGLGPVVR; listed as Homo sapiens)
−0.65,,FN1_1656 (SSSPVTGYR; listed as Homo sapiens)
−0.27,,FBLN2_259 (ALGPPAPVQAKAR; listed as Homo sapiens)
−0.19,,HSPG2_2331 (ANLAYPAGSTQPIR; listed as Homo sapiens)
,0.29,LTBP1_393 (LTATNFR; listed as Homo sapiens)
0.18,,GSN_413 (HIANVER; listed as Homo sapiens)
−1.35,,FLNA_1285 (LTQTGGPHVKAR; listed as Homo sapiens)
,0.06,LOXL2_38 ([code q]QPAPEYHQPQAPANVAKIQLR; not fully specified; listed as Homo sapiens)
−0.44,,FBLN2_260 (LGPPAPVQAKAR; listed as Homo sapiens)
−0.11,,LOX_124 (WFQAGYSTSR; listed as Homo sapiens)
−0.27,,AEBP1_37 (FLEGFLSELEPEPR; listed as Homo sapiens)
,0.05,LTBP1_540 (HQQVIPHVYPVAAKTQLGR; listed as Homo sapiens)
−0.31,,IGFBP3_31 (SAGLGPVVR; listed as Homo sapiens)
−0.26,,LOX_126 (QAGYSTSR; listed as Homo sapiens)

# Continued, substance first:
Substance,"logFC.mEQ.over.Luc (log fold change, mEQ over Luc)",logFC.mEQ.over.Luc [1]
EFEMP1_124 (AVAGPEMQTGR; listed as Homo sapiens),−0.46,
EFEMP1_125 (VAGPEMQTGR; listed as Homo sapiens),−0.99,
FBN1_29 (LEAGNVKETR; listed as Homo sapiens),−0.24,
LOX_58 (LSLGSQYQPQR; listed as Homo sapiens),−0.08,
LOXL2_37 (FQQPAPEYHQPQAPANVAKIQLR; listed as Homo sapiens),,−0.03
LOXL1_219 (VASAGVIYPYQPR; listed as Homo sapiens),,0.09
CCDC80_66 (LEEPNLQPLQR; listed as Homo sapiens),−0.13,
HSPG2_275 (LLPGSVR; listed as Homo sapiens),−0.36,
FN1_36 (MVQPQSPVAVSQSKPGCYDNGKHYQINQQWER; listed as Homo sapiens),−0.11,
FN1_1143 (LTPGVEYVYTIQVLR; listed as Homo sapiens),−0.49,
LOX_123 (HWFQAGYSTSR; listed as Homo sapiens),0.00,
HSPG2_2333 (LAYPAGSTQPIR; listed as Homo sapiens),−0.22,
FN1_40 (QSPVAVSQSKPGCYDNGKHYQINQQWER; listed as Homo sapiens),−0.06,
FBN1_53 (LKGPNVCGSR; listed as Homo sapiens),−0.25,
IGFBP7_101 (AAGGPGVSGVCVCKSR; listed as Homo sapiens),−0.04,
